This series addresses EGFR extracellular domain, Fc fusion (EGFR-Fc) (UniProt P00533 25-644). As to the kind of experiment: ELISA-type plate assay; EGFR-Fc on protein A 96-well plates, biotinylated aptamer, streptavidin-AP chemiluminescence, n = 3; buffer, salt, pH and temperature not in the material. The conditions noted are these: protein: recombinant, tags: Fc, chain copies: 2, label: 5'-biotin, single strand.

B1: MinE07UC-Biotin (structured_RNA)
RNA: GGAUUUAAUCGCCGUAGAAAAGCAUGUCAAAGCCGGAACCGUCC
modifications: 2'-F on all C and U; 5-vinyl-U at 4,27 (U1,U7); 5-phenyl-U at 25 (U6); lacks 5' GGAC
B1: the Kd stood at 1.23 ± 0.1 nM.
For GGACGGAUUUAAUCGCCGUAGAAAAGCAUGUCAAAGCCGGAACCGUCC (structured_RNA, 2'-F on all C and U; A and G ribo) [MinE07-Biotin], the equilibrium dissociation constant (Kd) (5' and 3' ends base pair, three loops (predicted)) is 3.7 ± 0.38 nM.
Regarding GGACGGAUUUAAUCGCCGUAGAAAAGCAUGUCAAAGCCGGAACCGUCC (structured_RNA, 2'-F on all C and U; 5-iodo on all 8 U (8,9,10,13,19,29,31,46)) [MinE07-U-I-Biotin], the Kd was 2.05 ± 0.26 nM.
Regarding GGACGGAUUUAAUCGCCGUAGAAAAGCAUGUCAAAGCCGGAACCGUCC (structured_RNA, 2'-F on all C and U; 5-phenyl on all 8 U (8,9,10,13,19,29,31,46)) [MinE07-U-Ph-Biotin], the Kd was 3.59 ± 0.82 nM.
Still for that read-out and setting: as for GGACGGAUUUAAUCGCCGUAGAAAAGCAUGUCAAAGCCGGAACCGUCC (structured_RNA, 2'-F on all C and U; 5-phenyl-U at 9,10,19 (U2,U3,U5); 5-iodo-U at 13 (U4)) [MinE07UB-Biotin], the figure is 1.47 ± 0.54 nM.
For GGACGGAUUUAAUCGCCGUAGAAAAGCAUGUCAAAGCCGGAACCGUCC (structured_RNA, 2'-F on all C and U; 5-vinyl-U at 8,31 (U1,U7); 5-phenyl-U at 29 (U6)) [MinE07UC'-Biotin], the Kd was determined as 1.11 ± 0.45 nM.
GGACGGAUUUAAUCGCCGUAGAAAAGCAUGUCAAAGCCGGAACCGUCC (structured_RNA, 2'-F on all C and U; 5-phenyl-U at 9,10,46 (U2,U3,U8); 5-iodo-U at 19 (U5)) [MinE07UA'-Biotin]: the Kd is 3.39 ± 0.71 nM.
Same read-out and setting: as for GGACGGAUUUAAUCGCCGUAGAAAAGCAUGUCAAAGCCGGAACCGUCC (structured_RNA, 2'-F on all C and U; 5-vinyl on all 8 U (8,9,10,13,19,29,31,46)) [MinE07-U-Vi-Biotin], the figure is 4.62 ± 0.48 nM.

B2: MinE07UA-Biotin (structured_RNA)
RNA: CGGAUUUAAUCGCCGUAGAAAAGCAUGUCAAAGCCGGAACCGUCC
modifications: 2'-F on all C and U; 5-phenyl-U at 6,7,43 (U2,U3,U8); 5-iodo-U at 16 (U5); lacks 5' GGA
Take B2: the Kd was 1.53 ± 0.13 nM.

In general, Kd refers to the constant that tells how readily two partners part at equilibrium.

Values taken from article PMC10498682, “Selection of optimised ligands by fluorescence-activated bead sorting†”.
